# Results published in patent US20060269543A1 (Amgen, published 2006).
# T1: IFN-γ (human, UniProt P01579 24-166, limits assumed)
# T1 sequence (looked up): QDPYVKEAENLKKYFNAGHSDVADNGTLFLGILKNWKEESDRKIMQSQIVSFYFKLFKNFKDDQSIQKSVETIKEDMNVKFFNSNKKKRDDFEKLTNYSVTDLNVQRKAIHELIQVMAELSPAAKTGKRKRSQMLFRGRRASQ
# Target: T1, IFN-γ
# Experiment: cell-based or functional assay
Binder,"IC50, A549 cell proliferation assay (ALAMARBLUE); sample stored 3 months at pH 5, 4° C.","IC50, A549 cell proliferation assay (ALAMARBLUE); sample stored 3 months at pH 5, 37° C."
"full length human IgG1 antibody against human IFN-γ, filtered purified bulk (FPB) (antibody, V domains shown, N-glycan sites at amino acids 28 and 297 of SEQ ID NO:17 (VH and CH2); heterogeneously sialylated) VH: EVQLVQSGAEVKKPGESLKISCKGSGYNFTSYWIGWVRQMPGKGLELMGIIYPGDSDTRYSPSFQGQVTISADKSISTAYLQWSSLKASDTAMYYCGSGSYFYFDLWGRGTLVTVSS VL: EIVLTQSPGTLSLSPGERATLSCRASQSVSSSYLAWYQQKPGQAPRLLIYGASSRATGIPDRFSGSGSGTDFTLTISRLEPEDFAVYYCQRSGGSSFTFGPGTKVDIKR",0.0023 µg/mL,0.0027 µg/mL
"full length human IgG1 antibody against human IFN-γ, purified isoform Peak +1 (antibody, V domains shown, N-glycan sites at amino acids 28 and 297 of SEQ ID NO:17 (VH and CH2); sialylation isoform Peak +1) VH: EVQLVQSGAEVKKPGESLKISCKGSGYNFTSYWIGWVRQMPGKGLELMGIIYPGDSDTRYSPSFQGQVTISADKSISTAYLQWSSLKASDTAMYYCGSGSYFYFDLWGRGTLVTVSS VL: EIVLTQSPGTLSLSPGERATLSCRASQSVSSSYLAWYQQKPGQAPRLLIYGASSRATGIPDRFSGSGSGTDFTLTISRLEPEDFAVYYCQRSGGSSFTFGPGTKVDIKR",0.0018 µg/mL,0.0028 µg/mL
"full length human IgG1 antibody against human IFN-γ, purified isoform Peak 0 (antibody, V domains shown, N-glycan sites at amino acids 28 and 297 of SEQ ID NO:17 (VH and CH2); sialylation isoform Peak 0) VH: EVQLVQSGAEVKKPGESLKISCKGSGYNFTSYWIGWVRQMPGKGLELMGIIYPGDSDTRYSPSFQGQVTISADKSISTAYLQWSSLKASDTAMYYCGSGSYFYFDLWGRGTLVTVSS VL: EIVLTQSPGTLSLSPGERATLSCRASQSVSSSYLAWYQQKPGQAPRLLIYGASSRATGIPDRFSGSGSGTDFTLTISRLEPEDFAVYYCQRSGGSSFTFGPGTKVDIKR",0.0024 µg/mL,0.0033 µg/mL

# More lines, now with the values ahead:
"IC50, A549 cell proliferation assay (ALAMARBLUE); sample stored 3 months at pH 5, 4° C.","IC50, A549 cell proliferation assay (ALAMARBLUE); sample stored 3 months at pH 5, 37° C.",Binder
0.003 µg/mL,0.0033 µg/mL,"full length human IgG1 antibody against human IFN-γ, purified isoform Peak -1 (antibody, V domains shown, N-glycan sites at amino acids 28 and 297 of SEQ ID NO:17 (VH and CH2); sialylation isoform Peak -1) VH: EVQLVQSGAEVKKPGESLKISCKGSGYNFTSYWIGWVRQMPGKGLELMGIIYPGDSDTRYSPSFQGQVTISADKSISTAYLQWSSLKASDTAMYYCGSGSYFYFDLWGRGTLVTVSS VL: EIVLTQSPGTLSLSPGERATLSCRASQSVSSSYLAWYQQKPGQAPRLLIYGASSRATGIPDRFSGSGSGTDFTLTISRLEPEDFAVYYCQRSGGSSFTFGPGTKVDIKR"
0.0037 µg/mL,0.0038 µg/mL,"full length human IgG1 antibody against human IFN-γ, purified isoform Peak -2 (antibody, V domains shown, N-glycan sites at amino acids 28 and 297 of SEQ ID NO:17 (VH and CH2); sialylation isoform Peak -2) VH: EVQLVQSGAEVKKPGESLKISCKGSGYNFTSYWIGWVRQMPGKGLELMGIIYPGDSDTRYSPSFQGQVTISADKSISTAYLQWSSLKASDTAMYYCGSGSYFYFDLWGRGTLVTVSS VL: EIVLTQSPGTLSLSPGERATLSCRASQSVSSSYLAWYQQKPGQAPRLLIYGASSRATGIPDRFSGSGSGTDFTLTISRLEPEDFAVYYCQRSGGSSFTFGPGTKVDIKR"
0.002 µg/mL,0.0032 µg/mL,"full length human IgG1 antibody against human IFN-γ, purified isoform Peak +2 (antibody, V domains shown, N-glycan sites at amino acids 28 and 297 of SEQ ID NO:17 (VH and CH2); sialylation isoform Peak +2) VH: EVQLVQSGAEVKKPGESLKISCKGSGYNFTSYWIGWVRQMPGKGLELMGIIYPGDSDTRYSPSFQGQVTISADKSISTAYLQWSSLKASDTAMYYCGSGSYFYFDLWGRGTLVTVSS VL: EIVLTQSPGTLSLSPGERATLSCRASQSVSSSYLAWYQQKPGQAPRLLIYGASSRATGIPDRFSGSGSGTDFTLTISRLEPEDFAVYYCQRSGGSSFTFGPGTKVDIKR"
